From article PMC9770967, “Native holdup (nHU) to measure binding affinities from cell extracts” (Science Advances, 2022)

What was measured:
Type in all cases: binding, human
full-length SNX27 = assay: nHU-MS, recombinant full-length SNX27 bait, total Jurkat extracts; settings: apparent, Fig. 4D, n = 6
Experimental: The empty His6-AviTag-MBP-TEV vector was used to produce biotinylated MBP for control experiments. Proteins were coexpressed with BirA biotin ligase (PET21a-BirA, Addgene, no. 20857) in Escherichia coli BL21(DE3) cells. At isopropyl-β-D-thiogalactopyranoside (IPTG) induction (1 mM IPTG at 18°C overnight), 50 μM biotin was added to the media. Harvested cells were lysed in a buffer containing 50 mM tris (pH 7.5), 150 to 300 mM NaCl, 50 μM biotin, 2 mM β-mercaptoethanol, cOmplete EDTA-free protease inhibitor cocktail (Roche, Basel, Switzerland), 1% Triton X-100, and trace amount of deoxyribonuclease, ribonuclease, and lysozyme. Lysates were frozen at −20°C before further purification steps. Lysates were sonicated and centrifuged for clarification. Expressed proteins were captured on in-house prepacked Ni-IDA (Protino Ni-IDA Resin, Macherey-Nagel, Duren, Germany) columns and were washed with at least 10 column volumes of cold wash buffer [50 mM tris (pH 7.5), 150 mM NaCl, and 2 mM β-mercaptoethanol] before elution with 250 mM imidazole. The Ni elution was collected directly on a preequilibrated amylose column (amylose high flow resin, New England Biolabs, Ipswich, MA). Amylose column was washed with 5 column volumes of cold wash buffer before fractionated elution in a buffer containing 25 mM Hepes (pH 7.5), 150 mM NaCl, 1 mM TCEP, 10% glycerol, 5 mM maltose, and cOmplete EDTA-free protease inhibitor cocktail. The concentration of proteins was determined by their ultraviolet absorption at 280 nm before aliquots were snap-frozen in liquid nitrogen and stored at −80°C.
(§1) For saturating streptavidin resin with biotinylated peptides or biotin, 50 μl of streptavidin resin was mixed with biotin or peptide at 40 to 60 μM concentration in 6 to 6.5 resin volume for 60 min. To saturate streptavidin resin with biotinylated proteins, 50 μl of streptavidin resin (Streptavidin Sepharose High Performance, Cytiva) was mixed with biotinylated MBP or MBP-PDZ at 40 to 50 μM concentration in 20× resin volume for 60 min. After saturation, resins were washed a single time [10 resin volume, holdup buffer: 50 mM tris (pH 7.5), 300 mM NaCl, and 1 mM TCEP, 0.22-μm filtered] and were depleted with biotin (10 resin volume, 10 min, holdup buffer supplemented with 100 μM biotin). Last, resins were washed two times (10 resin volume, holdup buffer).
(§2) For single-point nHU experiments carried out at ~10 μM bait concentration, 50 μl of saturated streptavidin resin was mixed with 200 μl of cell lysate (2 mg/ml). Titration experiments were carried out by mixing control and bait-saturated resin and keeping the total resin volume constant; e.g., ~5 μM bait concentration can be achieved by mixing 25 μl of bait-saturated streptavidin resin with 25 μl of control resin and 200 μl of cell lysate (2 mg/ml). Control and bait-saturated resins were prepared in larger amounts, and a serial dilution was prepared with these presaturated resins to achieve different resin ratios.
Unless specified elswhere, the nHU mixture was incubated at 4°C for 2 hours. After the incubation ended, the resin was separated from the supernatant by a brief centrifugation (15 s, 2000 g). Then, half of the supernatant was removed by pipetting without any delay to avoid any resin contamination; e.g., 100 μl of supernatant is collected if 200 μl of cell lysate was used as analyte. Alternatively, the supernatant can be centrifuged an additional time to clarify it further, removing any possible resin contamination. […]

SCRIB_PDZ_1 = assay: nHU-MS, SCRIB_PDZ_1 bait, total Jurkat extracts (Exploris MS); settings: SCRIB_PDZ_1&Jurkat (Exploris)
Excerpt: (§3) To further establish the repeatability and robustness of the nHU-MS assay, we repeated the experiments using a different mass spectrometer and six different PDZ domain baits taken from SCRIB (PDZ_1 and PDZ_2), discs large MAGUK scaffold protein 1 (DLG1, PDZ_1, and PDZ_2), Tax1 binding protein 3 (TAX1BP3), and SNX27 (fig. S3B and table S1). […] Of the studied baits, the PDZ domain of SNX27 turned out to be the most promiscuous with 103 statistically significant interaction partners (while 180 SNX27 binding partners were identified in total on the basis of the three independent nHU-MS experiments).
as §1, §2
(§4) Unless specified elswhere, the nHU mixture was incubated at 4°C for 2 hours. After the incubation ended, the resin was separated from the supernatant by a brief centrifugation (15 s, 2000 g). Then, half of the supernatant was removed by pipetting without any delay to avoid any resin contamination; e.g., 100 μl of supernatant is collected if 200 μl of cell lysate was used as analyte. Alternatively, the supernatant can be centrifuged an additional time to clarify it further, removing any possible resin contamination. In principle, the separation of the supernatant should be as fast as possible since any delay can perturb the equilibrium. […] Alternatively, the resin can be separated from the supernatant using filter plates (e.g., various products of Millipore, Burlington, MA) or spin columns (e.g., Pierce spin cups—cellulose acetate filter from Thermo Fisher Scientific, Waltham, MA) to achieve faster separation.
The nHU samples were precipitated with trichloroacetic acid (TCA) 20% overnight at 4°C and centrifuged at 14,000 rpm for 10 min at 4°C. The protein pellets were washed twice with 1 ml of cold acetone and air-dried. The protein extracts were solubilized in 8 M urea, reduced with 5 mM TCEP for 30 min, and alkylated with 10 mM iodoacetamide for 30 min in the dark. Double digestion was performed at 37°C with 500 ng of endoproteinase Lys-C (Wako, Richmond, USA) for 4 hours, followed by fourfold dilution and an overnight digestion with 500 ng of trypsin (Promega, Charbonnieres les Bains, France). Peptide mixtures were then desalted on a C18 spin-column and dried on a speed vacuum.
(§5) Samples were analyzed using an Ultimate 3000 nano-RSLC coupled in line via a nano-electrospray ionization source, with an LTQ-Orbitrap ELITE mass spectrometer (Thermo Fisher Scientific, San Jose, CA) or with the Orbitrap Exploris 480 mass spectrometer (Thermo Fisher Scientific, Bremen, Germany) equipped with a high field asymmetric ion mobility spectrometry (FAIMS) module. […]

SNX27_PDZ = assay: nHU-MS, SNX27_PDZ bait, total Jurkat extracts, series 2 (Exploris MS); settings: SNX27_PDZ&Jurkat (Exploris)
Excerpt: as §3, §1, §2, §4
The nHU samples were precipitated with trichloroacetic acid (TCA) 20% overnight at 4°C and centrifuged at 14,000 rpm for 10 min at 4°C. The protein pellets were washed twice with 1 ml of cold acetone and air-dried. […]
as §5

Row | Molecule | pKapp (full-length SNX27) | pKapp (nHU-MS) (SCRIB_PDZ_1) | pKapp (nHU-MS) (SNX27_PDZ)
1 | DNAJC16 (protein, UniProt Q9Y2G8 26-782, looked up) DnaJ homolog subfamily C …: LDFDPYRVLGVSRTASQADIKKAYKKLAREWHPDKNKDPGAEDKFIQISKAYEILSNEEKRSNYDQYGDAGENQGYQKQQQQREYRFRHFHENFYFDESFFHFPFNSERRDSIDEKYLLHFSHYVNEVVPDSFKKPYLIKITSDWCFSCIHIEPVWKEVIQELEELGVGIGVVHAGYERRLAHHLGAHSTPSILGIINGKISFFHNAVVRENLRQFVESLLPGNLVEKVTNKNYVRFLSGWQQENKPHVLLFDQTPIVPLLYKLTAFAYKDYLSFGYVYVGLRGTEEMTRRYNINIYAPTLLVFKEHINRPADVIQARGMKKQIIDDFITRNKYLLAARLTSQKLFHELCPVKRSHRQRKYCVVLLTAETTKLSKPFEAFLSFALANTQDTVRFVHVYSNRQQEFADTLLPDSEAFQGKSAVSILERRNTAGRVVYKTLEDPWIGSESDKFILLGYLDQLRKDPALLSSEAVLPDLTDELAPVFLLRWFYSASDYISDCWDSIFHNNWREMMPLLSLIFSALFILFGTVIVQAFSDSNDERESSPPEKEEAQEKTGKTEPSFTKENSSKIPKKGFVEVTELTDVTYTSNLVRLRPGHMNVVLILSNSTKTSLLQKFALEVYTFTGSSCLHFSFLSLDKHREWLEYLLEFAQDAAPIPNQYDKHFMERDYTGYVLALNGHKKYFCLFKPQKTVEEEEAIGSCSDVDSSLYLGESRGKPSCGLGSRPIKGKLSKLSLWMERLLEGSLQRFYIPSWPELD | – | 4.6996 | 4.859
2 | SNX6: component of the SNX-BAR complex (protein, UniProt Q9UNH7 1-406, looked up) Sorting nexin-6: MMEGLDDGPDFLSEEDRGLKAINVDLQSDAALQVDISDALSERDKVKFTVHTKSSLPNFKQNEFSVVRQHEEFIWLHDSFVENEDYAGYIIPPAPPRPDFDASREKLQKLGEGEGSMTKEEFTKMKQELEAEYLAIFKKTVAMHEVFLCRVAAHPILRRDLNFHVFLEYNQDLSVRGKNKKEKLEDFFKNMVKSADGVIVSGVKDVDDFFEHERTFLLEYHNRVKDASAKSDRMTRSHKSAADDYNRIGSSLYALGTQDSTDICKFFLKVSELFDKTRKIEARVSADEDLKLSDLLKYYLRESQAAKDLLYRRSRSLVDYENANKALDKARAKNKDVLQAETSQQLCCQKFEKISESAKQELIDFKTRRVAAFRKNLVELAELELKHAKGNLQLLQNCLAVLNGDT | 5.47 | – | –

Further lines, results first:

Row | pKapp (full-length SNX27) | pKapp (nHU-MS) (SCRIB_PDZ_1) | pKapp (nHU-MS) (SNX27_PDZ) | Molecule
3 | 5.47 | – | – | WASH2: component of the WASH complex (protein) MTPVRMQHSLAGQTYAVPLIQPDLRREEAVQQMADALQYLQKVSGDIFSRISQQVEQSRSQVQAIGEKVSLAQAKIEKIKGSKKAIKVFSSAKYPAPERLQEYGSIFTGAQDPGLQRRPRHRIQSKHRPLDERALQEKLKDFPVCVSTKPEPEDDAEEGLGGLPSNISSVSSLLLFNTTENLYKKYVFLDPLAGAVTKTHVMLGAETEEKLFDAPLSISKREQLEQQVPENYFYVPDLGQVPEIDVPSYLPDLPGIANDLMYIADLGPGIAPSAPGTIPELPTFHTEVAEPLKVDLQDGVLTPPPPPPPPPPAPEVLASAPPLPPSTAAPVGQGARQDDSSSSASPSVQGAPREVVDPSGGRATLLESIRQAGGIGKAKLRSMKERKLEKKKQKEQEQVRATSQGGHLMSDLFNKLVMRRKGISGKGPGAGEGPGGAFARVSDSIPPLPPPQQPQAEEDEDDWES
4 | 4.94 | – | – | Strumpellin: component of the WASH complex (protein, UniProt Q12768 1-1159, looked up) WASH complex subunit 5: MLDFLAENNLCGQAILRIVSCGNAIIAELLRLSEFIPAVFRLKDRADQQKYGDIIFDFSYFKGPELWESKLDAKPELQDLDEEFRENNIEIVTRFYLAFQSVHKYIVDLNRYLDDLNEGVYIQQTLETVLLNEDGKQLLCEALYLYGVMLLVIDQKIEGEVRERMLVSYYRYSAARSSADSNMDDICKLLRSTGYSSQPGAKRPSNYPESYFQRVPINESFISMVIGRLRSDDIYNQVSAYPLPEHRSTALANQAAMLYVILYFEPSILHTHQAKMREIVDKYFPDNWVISIYMGITVNLVDAWEPYKAAKTALNNTLDLSNVREQASRYATVSERVHAQVQQFLKEGYLREEMVLDNIPKLLNCLRDCNVAIRWLMLHTADSACDPNNKRLRQIKDQILTDSRYNPRILFQLLLDTAQFEFILKEMFKQMLSEKQTKWEHYKKEGSERMTELADVFSGVKPLTRVEKNENLQAWFREISKQILSLNYDDSTAAGRKTVQLIQALEEVQEFHQLESNLQVCQFLADTRKFLHQMIRTINIKEEVLITMQIVGDLSFAWQLIDSFTSIMQESIRVNPSMVTKLRATFLKLASALDLPLLRINQANSPDLLSVSQYYSGELVSYVRKVLQIIPESMFTSLLKIIKLQTHDIIEVPTRLDKDKLRDYAQLGPRYEVAKLTHAISIFTEGILMMKTTLVGIIKVDPKQLLEDGIRKELVKRVAFALHRGLIFNPRAKPSELMPKLKELGATMDGFHRSFEYIQDYVNIYGLKIWQEEVSRIINYNVEQECNNFLRTKIQDWQSMYQSTHIPIPKFTPVDESVTFIGRLCREILRITDPKMTCHIDQLNTWYDMKTHQEVTSSRLFSEIQTTLGTFGLNGLDRLLCFMIVKELQNFLSMFQKIILRDRTVQDTLKTLMNAVSPLKSIVANSNKIYFSAIAKTQKIWTAYLEAIMKVGQMQILRQQIANELNYSCRFDSKHLAAALENLNKALLADIEAHYQDPSLPYPKEDNTLLYEITAYLEAAGIHNPLNKIYITTKRLPYFPIVNFLFLIAQLPKLQYNKNLGMVCRKPTDPVDWPPLVLGLLTLLKQFHSRYTEQFLALIGQFICSTVEQCTSQKIPEIPADVVGALLFLEDYVRYTKLPRRVAEAHVPNFIFDEFRTVL
